Experimental findings from US20200339657A1, “PEPTIDES AND COMBINATION THEREOF FOR USE IN THE IMMUNOTHERAPY AGAINST CANCERS” (Immatics Biotechnologies GmbH, priority 2017, published 2020) are described below.

For one assay, the system named is CD8+ T cells. Put plainly: In vitro immunogenicity: T-cell priming with aAPCs loaded with peptide/MHC and anti-CD28, multimer readout. As to conditions: HLA A*02. It counts as cell-based, human.
A further assay deals with HLA-A*02:01 (Homo sapiens, UniProt P04439, D140Y/D185E/D98H/E176V/E277Q/G131W/G231S/I119V/I121R/I166T/I218V/L300P/L318F/N151K/N90K/P208A/P217A/Q86G/Q94H/R138H/R169H/T345S). Put plainly: MHC binding assay (UV-ligand exchange, β2m ELISA). The settings on record: for Peptide exchange: peptide exchange yield, binding to HLA-A*02:01.

For the substance “38 (VMLNSNVLL; listed as Homo sapiens) [compound 38]”, in the assay on CD8+ T cells, the “Wells positive [%]” value is ““+” (<20% = +)”. Further, in the assay with HLA-A*02:01, the Peptide exchange entry is ““++++” (>75% = ++++)”.
In the same order, the values of “60 (GLPDFVKEL; listed as Homo sapiens) [compound 60]” are ““++” (20%-49% = ++)” and ““++++” (>75% = ++++)”.
Regarding “249 (ALFPERITV; listed as Homo sapiens) [compound 249]”, the “Wells positive [%]” value in the assay on CD8+ T cells is ““++” (20%-49% = ++)”. Moreover, in the assay with HLA-A*02:01, the Peptide exchange result was ““++++” (>75% = ++++)”.
For “50 (ELMPRVYTL; listed as Homo sapiens) [compound 50]”, the “Wells positive [%]” value in the assay on CD8+ T cells was ““+” (<20% = +)”. Also, the Peptide exchange entry with HLA-A*02:01 is ““+++” (>50 = +++)”.
In the same order, the values of “250 (KMILKMVQL; listed as Homo sapiens) [compound 250]” are ““++” (20%-49% = ++)” and ““+” (>10% = +)”.
Consider “57 (GLTGVIMTI; listed as Homo sapiens) [compound 57]”, for which, in the assay on CD8+ T cells, the “Wells positive [%]” value was ““++++” (>= 70% = ++++)”. In addition, the Peptide exchange result in the assay with HLA-A*02:01 is reported as ““++++” (>75% = ++++)”.
For “43 (GLMTIVTSL; listed as Homo sapiens) [compound 43]”, in that order: ““++” (20%-49% = ++)” and ““++++” (>75% = ++++)”.
“56 (FLNQIYTQL; listed as Homo sapiens) [compound 56]”: in the assay with CD8+ T cells, the “Wells positive [%]” value is ““+++” (50%-69% = +++)”. Besides, the Peptide exchange entry in the assay with HLA-A*02:01 is recorded as ““++++” (>75% = ++++)”.
In the same order, the values of “42 (KMMALVAEL; listed as Homo sapiens) [compound 42]” are ““++++” (>= 70% = ++++)” and ““++++” (>75% = ++++)”.
Turning to “41 (SLQDTKITL; listed as Homo sapiens) [compound 41]”, the Peptide exchange result with HLA-A*02:01 is recorded as ““+++” (>50 = +++)”.
Take “53 (LLMTSLTES; listed as Homo sapiens) [compound 53]”: the Peptide exchange result with HLA-A*02:01 is given as ““+++” (>50 = +++)”.
For the substance “KTLGKLWRL (listed as Homo sapiens) [SEQ ID NO: 267]”, in the assay with HLA-A*02:01, the “bind to HLA-A*02” value is “binds to HLA-A*02”.
